Consider 17 sequences from a protein production outcome set (Wang et al. 2014).

The nature of the data set: label from the status in PepcDB records.
Consider “MAKYVVTSAWPYVNHVPHLGTLIGSVLSADIYARYLRLRGRQVVFVSGSDEHGTPIELEARKKGVHPKELTDQVHEYDVKMWREYRISFDNYSRTESPVHKEFVMEFMKKLEENGYIFSQEEVLPYCERDKIFLPDRFVEGTCPYCGYEKARGDQCDECGRLLHPTELKNPRCALCGSKPVYKSTRHWFIDLRRVQDRLLKWLESHGELQDSVKKYSINWVAQGLKPRSVTRDLSWGVPAPFKGAEGKTIYVWFDALLGYVSATKELFIMRRGDPEEWKSWWWDSGTRTVYFIGKDNIPFHAIILPALFLASHDPYVLPWRISATEYLMYEGQQFSKSRRIGVWIDEALEIAPADYWRWALARMRPEARDTNFTWKEFYRIVNTELNDDIGNFVNRVLSLVRSRMSGVAPEPEDLGEHQGFVERVRRAAWAVAEDLEAIRIKRATEGILEIAREGNAYLNRTQPWKLLSQDREEGVRALSAALYAVKTLAHLLAPFTPDAADRLWSMLGLAGSVHEAVWDEWLDRPLPGGARIVRVEPLFQKLPDDFLERVDEIVEDARRRAREKRPPLLRD”, for which the protein production entry is given as “failed”.
In the case of “MALANFIDRAATAASQVLADFHLEDFKAALEKQVVAVAFDDQAASCAEGQATLDLAVRLLARLYPVLAILPLGSAASFQAQALERLAKSINPKVGIRRSGKSATICVVAGVTRPPLRCPTFFMGSDGWAAKLSRTDPVGSGSSLLPYGAGAASCFGAANVFRTIFAAQLTGAELDETIDLSLYSYDKTKAGEAGPIDIPVDLGETHLVGLGAIGHGSLWALARQPGLTGRLHVIDHEAIELSNLQRYVLAGQAEIGMSKAVLAATALRSTAIGVEAHPLTWAEYVARHGDWVFDRVGVALDTAADRLAVQGALPRWIANAWTQEHDLGISRHGFDDGQACLCCMYLPSGKSKDEHHLIAEELGIPEAHEQVKTLLQTNAGVPNDFVVRVATAMAVPFEPLAPFVGQPLRSFYQQAICGGLVFQLSDGSRRVRTVVPMAFQSALAGIMLAAELVKHSAGFPVGPTTSTRVNLLRPLGSRLHDPKAKDSSGRCICSDDDFIAAYRRKYGKSIVQLSDVSAA”, the protein production entry is on record as “failed”.
For “MALARWGAALQRRWQAIDPAERAGFVAGARFYVGSLPPVFAWGLVTGVAMSKSVLTIPQAIGMTLLVYAGSSQLAVLPLMAAGLPVWTVLLTAFIVNVRFIIFSAGLMQHFSHLPFGRRVLIGFFNGDLPFVLFSQRYPGPGPERGKEGYLWGMALANWTIWQVSSLLGIVGASLFPDAWGLALAGTLALIPVMVSTIRSRATLMAVAVAAVLALVAFKLPYRLSLVIAVVGAMAAGLAGDEATARLQWQRRGAQPAPSEPKEGP”, the protein production entry was “failed”.
“MALDQSLVGRSYPPTAPYEVGREKIREFAEAVGDANPAYTDAEAAKALGHPDVIAPPTFVFSITFKAAGQVIEDPQLGLDYSRVVHGDQKFSYARPVRAGDRLTVTSTIEAIKSMAGNDILDIRGEVHDEAGEHVVTAWTKLVARAAEEALEHHHHHH”: the protein production entry is listed as “not failed”.
As for “MALFSVFSVAQTTTYHTKNKKSISAYQEAELLQQQRRWNEAINVLDAVIQKDTGFVEAYYKVGSMYMAMGNKTAAARYFCKGADLDPSVKAFAGAYFTAGELSYNEGEYVRAKRYFGYALNVQSGDKKIKEQTPVYIAKCDFAIDMMKHPVDFKPVLMTPPINTAFAQSHPVLTADGKTLYYTTLSGLSRQDDENIVTSSYVNGKWSEPVSISDNINSKENEGTCSISMDGNSLVFVGCGKADGLGSCDIYISKKVNNVWSKPTNLGPAVNSTSWDSHPSLSADGRTLYFVSARKGGFGKEDIYVTHLDEKGIWSPAQNAGSSVNTSGTEFSPFIHADGTTLYFSSNGLLGMGGLDIFYTTGNDTTWAVPKNIGYPLNTYANDETLFITVDGAKGYYSRFDGTNVNYNSRIFLYEFDVPQSLKPGRISTFAKGHIYDKQTKKPLGARVELVDIETNTVTQAVQSDSITGEYTIVITEGKEYAVYVNRNKYLFESLNVNYKNPTSFDALTLDIYLTPIISGSHVTLNNIFFQTNSYQLEEKSISELKKLINFIQINPAQRVELAGYTDNVGTAEANLKLSAMRAKAVYDYLIQHGIKPAGITYKGYGAASPVADNNSEEGRQKNRRLEIKIL”, the protein production result is recorded as “failed”.
As for “MALGFGMKMELQQFLDALASSPEKIEFETTMAVIEDNYDFTPAAFTNGNTQNDANENNGSCKIFAFGLLNALDKEATLACFGRFYREDVLLHPENNDHQNIRNFMVTGWEGIQFETSALTAK”, the protein production result was “not failed”.
Turning to “MALHNDGFINRQFVFGDFVLQFDGVLCHQEQQISVPPKELAVLTALLEAAGELVSKDALLDKVWPDGDVNEESLTRCIYALRRILLEDKSNRYIDTVYGKGYRFSRPVAVVSRPTASAQKCTMAILPFRTDGQLDSLELHAALVQCLSRYSPFGLVVMPATITRNCGDIADIIAMIDQLRPDYYLAGQVQQQGDSWLLRVELVRADGHQLVHHESIEIGPGEHIAALQTRLASLLPQRIPGLRWHHGNGSQLDSLDMAITYLNGRHELQQHTPSSLKRALALFLQCTSSQPGNALPYCSLAECYLALAQLGLFDQERALDGAQQAVDRAVALDAANPQALGLLALLSSLRGQQTIAEALFEQARMLAPDSIDIHYYHAWHLFLSDRIPLAQRSLDACLERDPSRIAASMLQLWLTYCEHRLDEAVALGKRQLCQYGQDHPVLQSMLGLMLAIQGQHAQAEELAAAVKASGEEAGLLAVNGCYIAHCRMGDAARPLLQDFLSRVDCRQVRSGLLPLILALHGRAGALHLLGQLESDRYLWLRASRQDPRLAGLFHPHLSEAA”, the protein production result is recorded as “failed”.
Consider “MALIEGFRVRNYRALRDITLGRLSAEQQGDPLTPFTVVIGKNGVGKSTLFDAFGFVADCLSKDVESACDDKQRGGFERMRSLGTEESIRFDIYYREAKGERPITYELAINLDSSGRPFVESEVLKQRRKGQKHGRPYPFLRLHHGVGKVWAGEEAVETSSGEEDRAQEDVELTDLRQLGIATLGTLKEHPRIKRFRDFLKGWHLSYFHPDSARSIPSAGAQRHLDVHGENIGNVVQYMEREHKERFKTILDRIAAKIPGVHSIRTTVTQDKRVLLQFNDGAFNDPFYAGQMSDGTLKIFAYLLLMEDPEPPPFICIEEPENGLYHRLLDSLASELRSHATGKKNAPQIFVTTHQPYFVDALSTKEVWILEKGKNGFSTICRASDIDLVRNLVEEGLPLGGLWYGDYLDTK”, for which the protein production entry is recorded as “failed”.
The entry for “MALIETGPGSTVPMLQARLAARGLTPADVSEVFLTHIHLDHAGAAGHLARHGATIYAHHVGLPHLSDPARLLASARRIYGDDMDALWGEMHPVPDDQLVALNDGDTVPLGGEPLTALDTPGHASHHMSYVLGDVCFTGDVGGVRMPEERHVELPLAPPEIDLDAWRESLAALRAAADRHGLTHLAPTHFGLYDDLPAHFERLEAAIETADDWAARKLPGWDDGDEALQDAVTQWMRSRASDHGVDGDAWDRYERANPSWMAALGLRRYWTTQTA” is “failed”; for “MALKELTAKEFESYSGNYDLQSFMQTPEMAKLLKKRGYDITYMGYQIDGKMEIISIVYTIPMTGGLHMEVNSGPAHSNSKYLKHFYKELQNYAKSQGALELLIKPYDTYQEFTGEGKPKGAPNTYLIDDLTSIGYHHDGLHIGYPGGEPDWHYVKNLEGITPQNLLKSFSKKGRPLVKKAMSFGIKIRVLKREELHIFKDITSSTSDRRDYMDKSLDYYQDFYDSFGDKAEFVIATLNFREYDHNLQLNAKKLEEQITVLDNRHQNNTDSAKYHRQRTELVNQLASLDKRRKEVEPFIQKFGNQDVVLAGSLFIYSPKETVYLFSGSYTEFNKFYAPAVLQEYVMQEALKRQSTFYNFLGIQGNFDGSDGVLRFKQNFNGYIVRKMGTFRYYPNPLKYKSIQLLKKILRRT” it is “failed”; for “MALKSHLRACSRPFPRQIGRMRRRNKSLPAAFVSKRLSVLIISRKPEMKALTCMAVLAALVTGSAFAQTPPQTSTRKVDGTDNVYIFRYGGHQSMFVVTPKGVIATDPISYLRPAKPYIDAIKAVTDQPIKYVVYSHHHYDHIAGGQPFKDLGATFIAHRRTKERLLELKKQNALLADVVMPDQVVDDKKSITLGGTTLELNYVGRNHSDNSLVMRLPKEKIVFVVDFAPIESVQFRNIPDNVSPLEYIASLKKLASLDWERMIPGHPNAGGRLGTKKDVEDDIAYMEDLSAEVKKAADAGKCIDTAMKEVKLPKYEKWANYETALPANVERFCYWWGRGY” it is “failed”.
Consider “MALLLFFLFIALLGFGILKINNRSILGGITLASGTLLSLVTLLFIGLDKIYLHFKNGDLITLAIAYLLIPAVFIGICLYFIFNSRTMQTKEGKSVTAKLSAGLGLNLLIALPAFLYLLSVGTAQIPYVLFLFLLFLLLMDLLLTFLFAAYVLYSWMYQMIPLKKAVDYIIVLGSGIRSEEVPPLLKSRLDKGIEYYEKNPTAKFVVSGGQGPDEPVAEAFAMKKYLLSQNIPAEAILMEDQSTTTYENMLFSKAIIQADWQKMPSDSKQPSVIFSTNNYHVLRGAMYAHRVGLKAEGVGAPTALYFLPTALIREYIALLVHDKRIVLFVFLLVTLLLGISILPI”, for which the protein production entry is on record as “failed”.
For the sequence “MALMTNKTRALLIGGHGKVALLATPMLIDASVQVTSMYRNPDHRSEIEALGATTLERDVTTLSVEDWADLLKDFDVVVWSAGNGGKNGADATYAIDRDAAIASIDGAASLGEKAPRYIMVSYIGSSTHTIDPSASFYPYAESKKAADEHLSSTNLDYLILAPAALTLDEVNGVEVIADTNEAAAGRTTSRVLVAEVITEFVVRDFPQTRVLPFVDGESPVSSIS”, the protein production entry is “failed”.
For the sequence “MALMTNKTRALLIGGHGKVALLATPMLIDASVQVTSMYRNPDHRSEIEALGATTLERDVTTLSVEDWADLLKDFDVVVWSAGNGGKNGADATYAIDRDAAIASIDGAASLGEKAPRYIMVSYIGSSTHTIDPSASFYPYAESKKAADEHLSSTNLDYLILAPAALTLDEVNGVEVIADTNEAAAGRTTSRVLVAEVITEFVVRDFPQTRVLPFVDGLEHHHHHH”, the protein production result is “failed”.
The entry for “MALQTEQFNANILRNGEWVESRTGERISISAPASGVALGSIPALSQEEVNDAIQGAKDAQKIWKIRPIHERVDLLYAWADLLEERKEIIGELIMHEVAKPKKSAIGEVSRTADIIRHTADEALRLNGETLKGDQFKGGSSKKIALVEREPLGVVLAISPFNYPVNLAAAKIAPALVTGNTVVFKPATQGSLSGIKMVEALADAGAPEGIIQVVTGRGSVIGDHLVEHPGIDMITFTGGTTTGERISEKAKMIPVVLELGGKDPAIVLDDADLKLTASQIVSGAFSYSGQRCTAIKRVFVQDSVADQLVANIKELVEQLTVGSPEDDADITPVIDEKSAAFIQGLIDDALENGATLLSGNKRQGNLLSPTLLDDVTPAMRVAWEEPFGPVLPIIRVKDANEAISLSNQSDYGLQASIFTKDTDRAINIGKHLEVGTVHINAKTERGPDHFPFLGVKKSGLGVQGIKPSLLSMTRERVTVLNL” is “not failed”; for “MALSDTKLRKIKAPYNGEAELADRDGLSVRVSPKALITFNYRFRWEGKQQRIKLGRYPGLKLIDARKKVNEYRHNLDEGLDPRVVQNESRSHNLFGDMCEAFMTKYVMTELRPKTQTLYKSTFNKYVTPYKNIDIERYKYTDWIAYFDWVKKESSSANAGSVLKRFKAVANWAKARGQIKHSHLIDIPIKAIGSHQQKRERCLEWDEVIGLWRQIESSKSTPQCKTCIQLLLLTGARNAEIREARRDEFDLDKNIWLLPPERSKTKKQVRRPLSTGVIELINKLDLIYGQDREYLIAGDIKGKPLTTHAVNRFVQRMNNHLKYPHFVPHDFRRTIVTRLSEHKVELHVTEKMLGHELGGILTRYNKHDWIDEQREAYELYWQKVTLLLKN” it is “failed”; for “MALTATVDVELKIRHSVPQRREPTKWRRIMYAITGITGKVGGAMARALLAAGQPVRAIVRDATKGRQWAALGCDVAIATMEDAEALTQAFKGATAVFILPPPVFDPEPFYPEAQAVIDSVATALRAAKPARVVCLSTVGADAVQDNLLSQHTKMETALSALPLALTLLRPAWFLDNVAWDVSSARGAGLIHSFLAPTGRALPMVAAEDVGRVAATLIQQDWSGTRIVELEGPERVSPDDLAAAFTTVLGKPVRAVPVPRETWEALFRSQGMRNPQPRMRMLDGFNEGWIAFADEARTIKGTISATTVVQALVAGEGA” it is “failed”.
